Measured values published in the supplement of paper PMC9170038.

Tested on: MS2 coat protein
Assay: apparent KD of MS2 coat protein; designed switch direction (-1 OFF switch, 1 ON switch): -1; higher = weaker reporter binding
Procedure, shortened: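 SNAP-549-labelled MS2 coat protein was titrated, doubling from 0.7 or 1.5 nM to 3 µM, over designed RNA switches transcribed on Illumina chips by stalled E. coli RNA polymerase. Runs were done without input, with 200 uM small-molecule ligand, or with an oligonucleotide input. Apparent KD is the per-design median over clusters of curve-fitted normalised fluorescence.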

[1] = Eterna round: R95, input ligand: microRNA oligo, concentration not stated
[2] = Eterna round: R95, input ligand: FMN 200 uM
[3] = Eterna round: R95, input ligand: none
[4] = input ligand: microRNA oligo, concentration not stated

Row | Sequence | apparent KD of MS2 coat protein (input ligand: FMN 200 uM) | apparent KD of MS2 coat protein (input ligand: none) | apparent KD of MS2 coat protein [1] | apparent KD of MS2 coat protein [2] | apparent KD of MS2 coat protein [3] | apparent KD of MS2 coat protein [4]
1 | AUCGUACUAGGAUAUUCGGAAACGGACAUGAGGAUCACCCAUGUGAAUAUCCGCAGUCCAGAAGAAGGAGUGAACG [EX5 C.27] (Eterna round: R97, puzzle: Exclusion 5) | 33.5 nM | 17.9 nM | – | – | – | –
2 | CACGAGCUAGGAUAUACAUGAGGAUCACCCAUGUAAGUCAUGCGGUCACAUCUGACAGGUAGAAGGAGCGCGUC [Teaertete] (puzzle: Exclusion 3) | – | – | 37.5 nM | – | – | –
3 | GGAUCGAGUGUGAGGAUAUGCUGGUCGUAAGAUCAGCAGAAGGCACAUGAGGAUCACCCAUGUGAAAACGGUCC [Mat - Exclusion 4 - JL Mod - D72] (puzzle: Brourd's mod of Exclusion 4) | – | – | 25.6 nM | – | – | –
4 | GGUUGGCGAGGAUAUACAUGAGGAUCACCCAUGUGAGAGAAAGAAGUGAGGAAGAAAAGUAGAAGGCGCUGACG [salish99_ex3_r3_005] (puzzle: Exclusion 3) | – | – | 196 nM | 542 nM | 59 nM | –
5 | ACUUGUCAUGAGGAUAUGCGACGCAACGGUGGAGCAGAAGGCGUGACAUGAGGAUCACCCAUGUCAGUUCGCGA [eternacac ex6r4 sub32] (Eterna round: R97, puzzle: Exclusion 6) | 43.4 nM | 16.1 nM | – | – | – | –
6 | UAUUCUAGAUAGGAUAUACUUUUUUUUUUUUUCGUAGAAGGAUCUACAUGAGGAUCACCCAUGUUAUCAGCAGU [JR_E6_Sub011] (puzzle: Exclusion 6) | – | – | 30.2 nM | 27.5 nM | 22.4 nM | –
7 | AUUAUUUCAGGAUAUGCCUUCAAAGACAUGAGGAUCACCCAUGUUUUCAGUGGCAGGAUCGCAGAAGGGAGAUAUU [EX5 C.29] (Eterna round: R97, puzzle: Exclusion 5) | 15.6 nM | 14.4 nM | – | – | – | –
8 | UAUUAAUGCAAGGAUAUGCUUUUAAUUUUUUUUGCAGAAGGUGCAACAUGAGGAUCACCCAUGUUUCAGGGUAU [JR_E6_Sub031] (puzzle: Exclusion 6) | – | – | 35.1 nM | – | – | –
9 | UUAAUGUGAGGAUAUCAGGUGUGCUAGCGUACUGGUACAUCUGAGAAGGCACAUGAGGAUCACCCAUGUUCCUG [JL-ex4-3.28 Brourd mod] (puzzle: Exclusion 4) | – | – | 20.6 nM | – | – | –
10 | UAUUAGCAAGUGAGAUCCCACAUGAGGAUCACCCAUGUGCUCGUCUUAUAAGGUACUGUGACGAGAGUCACGGUACC [Mat - Sensor, turn-off var - Eli Mod - D2] (Eterna round: R97, puzzle: Sensor, turn-off variant 1) | 46.1 nM | 44.7 nM | – | – | – | –
11 | CUGGUGCGCGGAGGAUAUCGGAAAGGAAGUGUACGAGAAGGUCGUUCCACCAAACAUGAGGAUCACCCAUGUAGGAGUGACCUC [PowerStrip EXNG 1.7] (Eterna round: R96, puzzle: Exclusion NG 1) | 127 nM | 62.9 nM | – | – | – | 45.6 nM
12 | AGCUGACGAGGAUAUACAUGAGGAUCACCCAUGUUGGUUCAGCGACGAUAGUCGCAAUGUAGAAGGCGUCAGCU [E3/9-A1] (Eterna round: R97, puzzle: Exclusion 3) | 77.4 nM | 496 nM | – | – | – | –
13 | ACAACAAGCUUUUUGAACGUAGAACAUGAAGCUCUAGUCACAUGAGGAUCACCCAUGUCAGCCAGUUAGAUAGGUGA [JR_SV3TOV2_Sub065] (puzzle: Sensor v3, turn-off variant 2) | – | – | 49 nM | 64.5 nM | 51.2 nM | –
14 | GAAAACGCAGAGGAUAUUUCAGAUCAAAGCUGCAAAGAAGGCUGCACAUGAGGAUCACCCAUGUGGUCUUUAAA [Quesina] (puzzle: Exclusion 6) | – | – | 17.8 nM | 167 nM | 16.4 nM | –
15 | AAUACAAGCUAUUGAUCCCACAUGAGGAUCACCCAUGUUCCUGGCCGUGAGACAAGGUUGACAAUAGCUCGUCUUAU [Sensor-V1 #45] (Eterna round: R97, puzzle: Sensor, turn-off variant 1) | 285 nM | 299 nM | – | – | – | –
16 | AAGAAACAUGAGGAUCACCCAUGUGAGGAUAUGGCCCGCCCGGCGUGAGCUAAAUAAAUCAGAAGGCACAAAGG [salish99_ex1_r4_010] (Eterna round: R97, puzzle: Exclusion 1) | 24.6 nM | 42.2 nM | – | – | – | –

Row | Sequence | apparent KD of MS2 coat protein (input ligand: FMN 200 uM) | apparent KD of MS2 coat protein (input ligand: none) | apparent KD of MS2 coat protein [1] | apparent KD of MS2 coat protein [2] | apparent KD of MS2 coat protein [3] | apparent KD of MS2 coat protein [4]
17 | AGAUUAAAAGUAAGGAUAUGAUGCAGGAAACUGCGUCAGAAGGUACAUGAGGAUCACCCAUGUUAAACUAAUUU [Explosion 6 - Jieux - Brourd's mod of Exclusion 4] (Eterna round: R97, puzzle: Brourd's mod of Exclusion 4) | 19.4 nM | 14.4 nM | – | – | – | –
18 | CAUGCUUCAUAGGAUAUGGAAGACGUACCGUCGCUAGAAGGAUGAACAUGAGGAUCACCCAUGUAAUACAGGGC [Eternabot (L2) Solution 64] (Eterna round: R97, puzzle: Exclusion 6) | 169 nM | 68.6 nM | – | – | – | –
19 | UUGCCUAAUGUUAGGAUAUGCGACGGGUGACCGUUGCAGAAGGAACAUGAGGAUCACCCAUGUUUAAUAAAAUC [JL-BMX4-4.43 ViennaUCT mod] (Eterna round: R97, puzzle: Brourd's mod of Exclusion 4) | 69.3 nM | 14.9 nM | – | – | – | –
20 | UUGUAACAUGAGGAUCACCCAUGUGAGGAUAUGGUUAAGUAAUGUAAUGUAAAGUAAUCCAGAAGGCACAAGUU [1st #23] (Eterna round: R97, puzzle: Exclusion 1) | 70.3 nM | 78.3 nM | – | – | – | –
21 | GGCCUUCCACAAGCUUUUUACAUGAGGAUCACCCAUGUGGUUUUUAGUCUUAUCCCGGGCCCGAUGUCGGGCCCGGG [-33.4, -54.7, A 16%] (Eterna round: R97, puzzle: Sensor, turn-off variant 1) | 27.4 nM | 28.4 nM | – | – | – | –
22 | GCCGUAAGUGUGAGGAUAUACCUAUGGAAACAUAGGUAGAAGGCACAUGAGGAUCACCCAUGUCCUUAAUCGGC [Mat - Exclusion 4 - Eli Mod - D4] (Eterna round: R97, puzzle: Brourd's mod of Exclusion 4) | 366 nM | 224 nM | – | – | – | –
23 | GAUUAUGCGAGCUUUAGGGACAUGAGGAUCACCCAUGUUCGUCUUAUUGGUCUAGGUGCGCUAACAUACCUAAAUCU [JMF 51] (puzzle: Sensor v3, turn-off variant 1) | – | – | 34.8 nM | 21.9 nM | 25.4 nM | –
24 | GGUUAUUGCAAGGAUAUGCUUUUUUUUGAUAUUGCAGAAGGUGCAACAUGAGGAUCACCCAUGUUGGAGGGAUU [JR_E6_Sub020] (puzzle: Exclusion 6) | – | – | 32.7 nM | – | – | –
25 | AGUAACAGAGGAUAUACUAUUUUAUGUGUUUGUUGUUUUAAACAUGAGGAUCACCCAUGUAGAAGGCUGAAUAA [JMF 88] (puzzle: Exclusion 2) | – | – | 19 nM | – | – | –
26 | UCAAGCUUUAAGCGUGUGAACAUGAGGAUCACCCAUGUAUUUUAGGUAAUAAGUUCAAUUAUGUAUUCUCGUCUUAU [JR_SWV3TOV1_Sub095] (puzzle: Sensor v3, turn-off variant 1) | – | – | 37.4 nM | 42.4 nM | 45.6 nM | –
27 | UUUGUUUAUGUAGGAUAUGCCUGGCGUGCCUUUGCAGAAGGACAUGAGGAUCACCCAUGUAUUGCGGUCUGCGUUCAGAUCGCA [salish99_ExNG1_r4_038] (Eterna round: R96, puzzle: Exclusion NG 1) | 43.2 nM | 29.4 nM | – | – | – | 30.2 nM
28 | UCGUGGUAACUCAGCAGUUUCCUGAGCGGAGGAACUUUGACAUGAGGAUCACCCAUGUUGCUUUUUGCUCAUCUUAA [JR_SV3TOV2_Sub042] (puzzle: Sensor v3, turn-off variant 2) | – | – | 40.3 nM | 20.9 nM | 16.1 nM | –
29 | UUAUUAAUUAAUAUUAUAAGAUCACAUGAGGAUCACCCAUGUCAGGAUAUCAGCUCGUUUAGAGCUGAGAAGGGACAAAUAAUA [ExNG3/15-B2] (Eterna round: R96, puzzle: Exclusion NG 3) | 118 nM | 189 nM | – | – | – | 187 nM
30 | AGUAACAGAGGAUAUACUGUUUUAUGUGUUUAUUAUUUUGAACAUGAGGAUCACCCAUGUAGAAGGCUGAAUAA [JMF 90] (puzzle: Exclusion 2) | – | – | 21.8 nM | – | – | –
31 | GAAAAGGUAGGAUAUACGAAAAAAAAUGGUAGAAAAAAAACACAUGAGGAUCACCCAUGUAGAAGGACCAAAAG [salish99_ex2_r3_071] (puzzle: Exclusion 2) | – | – | 24.6 nM | 23 nM | 17.9 nM | –
32 | CCCUCACAUGAGGAUCACCCAUGUCAGGAUAUCCAAGGCGAUCACCAAAAUAAAGCAAGGAGAAGGGACUUGGC [Enona] (Eterna round: R97, puzzle: Exclusion 1) | 71.5 nM | 41.4 nM | – | – | – | –
